In article PMC5124697, “Expression Profiles and DNA-Binding Affinity of Five ERF Genes in Bunches of Vitis vinifera cv. Cardinal Treated with High Levels of CO2 at Low Temperature”:

Legend:
Experiment in all cases: EMSA; EMSA: 2 ug protein in 20 ul, 80 nM biotin probe, 50 ng/ul poly(dI-dC), 2.5% glycerol, 1x binding buffer (composition and pH not given), room temperature 20 min; 6% native PAGE, 0.5x TBE; competition 500x unlabeled probe (50 uM unlabeled DNA listed)
Settings in all cases: protein: recombinant; tags: N-terminal His (pTrcHisA); label: 3' biotin
[1] = target: VviERF11-c (Vitis vinifera cv. Cardinal, UniProt A0A1L6BXF0 1-220)
[2] = target: VviERF2-c (Vitis vinifera cv. Cardinal, UniProt A0A1L6BXE6 1-282)
[3] = target: VviERF6L7-c (Vitis vinifera cv. Cardinal, UniProt A0A1L6BXF1 1-277)
[4] = target: VviERF10-c (Vitis vinifera cv. Cardinal, UniProt F6HIF5 1-204)
[5] = target: VviERF069-c (Vitis vinifera cv. Cardinal, UniProt A0A1L6BXE7 1-285)
Sequence of VviERF069-c (A0A1L6BXE7 entry or part of it): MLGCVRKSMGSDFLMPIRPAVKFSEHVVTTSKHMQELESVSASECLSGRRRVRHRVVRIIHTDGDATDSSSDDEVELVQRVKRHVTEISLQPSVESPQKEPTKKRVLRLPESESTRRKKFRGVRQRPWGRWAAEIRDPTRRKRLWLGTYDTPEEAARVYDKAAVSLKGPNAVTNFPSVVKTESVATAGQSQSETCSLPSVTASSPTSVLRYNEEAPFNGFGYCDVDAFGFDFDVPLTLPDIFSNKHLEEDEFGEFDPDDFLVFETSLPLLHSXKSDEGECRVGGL

Sequence of VviERF2-c (A0A1L6BXE6 entry or part of it): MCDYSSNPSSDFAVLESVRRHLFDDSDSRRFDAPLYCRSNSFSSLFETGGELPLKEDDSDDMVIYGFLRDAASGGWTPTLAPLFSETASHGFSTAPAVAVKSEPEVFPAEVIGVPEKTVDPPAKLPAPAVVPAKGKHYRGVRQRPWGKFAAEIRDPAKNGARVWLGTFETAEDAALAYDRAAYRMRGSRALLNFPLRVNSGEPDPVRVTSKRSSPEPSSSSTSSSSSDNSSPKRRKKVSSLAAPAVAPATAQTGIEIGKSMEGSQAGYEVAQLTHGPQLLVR
Sequence of VviERF11-c (A0A1L6BXF0 entry or part of it): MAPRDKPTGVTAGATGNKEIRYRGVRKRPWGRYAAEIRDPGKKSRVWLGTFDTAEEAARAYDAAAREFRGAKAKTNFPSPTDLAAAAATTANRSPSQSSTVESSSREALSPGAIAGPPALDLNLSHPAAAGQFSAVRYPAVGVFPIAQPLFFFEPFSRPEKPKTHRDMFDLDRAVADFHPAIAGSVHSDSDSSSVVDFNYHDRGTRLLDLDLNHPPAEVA
Sequence of VviERF6L7-c (A0A1L6BXF1 entry or part of it): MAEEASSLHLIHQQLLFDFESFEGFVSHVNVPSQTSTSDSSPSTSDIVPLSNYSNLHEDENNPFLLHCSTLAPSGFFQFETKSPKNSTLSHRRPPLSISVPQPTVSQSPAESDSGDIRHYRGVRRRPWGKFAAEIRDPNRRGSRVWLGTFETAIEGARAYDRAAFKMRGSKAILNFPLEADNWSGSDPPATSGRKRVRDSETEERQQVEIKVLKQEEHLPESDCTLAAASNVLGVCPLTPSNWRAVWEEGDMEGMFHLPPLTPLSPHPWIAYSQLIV
Sequence of VviERF10-c (F6HIF5 entry or part of it): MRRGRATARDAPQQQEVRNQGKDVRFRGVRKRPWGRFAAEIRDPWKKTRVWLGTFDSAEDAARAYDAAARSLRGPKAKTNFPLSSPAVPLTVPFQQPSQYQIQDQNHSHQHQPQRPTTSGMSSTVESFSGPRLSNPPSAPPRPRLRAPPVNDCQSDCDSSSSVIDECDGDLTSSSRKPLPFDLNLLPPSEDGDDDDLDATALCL

B1: Vcchit1b GCC box (dsDNA)
DNA 1: AAAAGCCGCCCACG
DNA 2: CGTGGGCGGCTTTT
binding result [1]: binds | binding result [2]: binds

B2: Vcgns1 GCC box (dsDNA)
DNA 1: TGGAGCCGCCGGGA
DNA 2: TCCCGGCGGCTCCA
binding result [3]: no binding

B3: Le-osmo GCC box (dsDNA)
DNA 1: AAAAGCCGCCACAC
DNA 2: GTGTGGCGGCTTTT
binding result [1]: no binding | binding result [4]: no binding | binding result [5]: no binding | binding result [3]: no binding | binding result [2]: no binding

B4: Nt-chit GCC box (dsDNA)
DNA 1: AAGAGCCGCCACTA
DNA 2: TAGTGGCGGCTCTT
binding result [1]: no binding | binding result [4]: no binding | binding result [5]: no binding | binding result [3]: no binding | binding result [2]: no binding
